Each substance was assayed against HLA-A*02:01 (Homo sapiens, UniProt P04439, D140Y/D185E/D98H/E176V/E277Q/G131W/G231S/I119V/I121R/I166T/I218V/L300P/L318F/N151K/N90K/P208A/P217A/Q86G/Q94H/R138H/R169H/T345S) (assay: MHC binding assay (UV-ligand exchange, ELISA, peptide exchange yield)). Details: binding of HLA-class I restricted peptides to HLA-A*02:01.
How it was run: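 Peptide–HLA-A*02:01 complexes made by UV-ligand exchange of a UV-cleavable peptide for the test peptide. Exchange yield measured by ELISA: 100-fold diluted monomers captured on streptavidin, 1 h at 37° C., detected with HRP anti-β2m and TMB, absorbance at 450 nm.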
In the case of “475 (LLLNEEALAQI; listed as Homo sapiens) [compound 475]”, the “Peptide exchange (MHC class I binding score, peptide exchange yield)” value (shortened to “Peptide exchange”) was “″+++″ (≥50% = +++)”.
In the case of “361 (ALYELEGTTV; listed as Homo sapiens) [compound 361]”, the “Peptide exchange” value was “″+++″ (≥50% = +++)”.
“265 (LLFGGTKTV; listed as Homo sapiens) [compound 265]” was tested, and the “Peptide exchange” value was “″++″ (≥20% = ++)”.
For “354 (LILEGVDTV; listed as Homo sapiens) [compound 354]”, the “Peptide exchange” value was “″++″ (≥20% = ++)”.
“312 (IISDLTIAL; listed as Homo sapiens) [compound 312]” was tested, and the “Peptide exchange” value was “″+++″ (≥50% = +++)”.
In the case of “302 (ALLQEGEVYSA; listed as Homo sapiens) [compound 302]”, the “Peptide exchange” value was “″+++″ (≥50% = +++)”.
For “407 (YLMDLINFL; listed as Homo sapiens) [compound 407]”, the “Peptide exchange” value was “″+++″ (≥50% = +++)”.
With “254 (TLLAFIMEL; listed as Homo sapiens) [compound 254]” the “Peptide exchange” value was “″+++″ (≥50% = +++)”.
For “224 (TLIDAQWVL; listed as Homo sapiens) [compound 224]”, the “Peptide exchange” value was “″+++″ (≥50% = +++)”.
“548 (ALWENPESGEL; listed as Homo sapiens) [compound 548]” was tested, and the “Peptide exchange” value was “″++″ (≥20% = ++)”.
With “565 (ALQETPTSV; listed as Homo sapiens) [compound 565]” the “Peptide exchange” value was “″++″ (≥20% = ++)”.
With “487 (LLINSVFHV; listed as Homo sapiens) [compound 487]” the “Peptide exchange” value was “″+++″ (≥50% = +++)”.
With “538 (LLLAHIIAL; listed as Homo sapiens) [compound 538]” the “Peptide exchange” value was “″++″ (≥20% = ++)”.
With “466 (VLIANLEKL; listed as Homo sapiens) [compound 466]” the “Peptide exchange” value was “″++++″ (≥75% = ++++)”.
With “204 (KIAENVEEV; listed as Homo sapiens) [compound 204]” the “Peptide exchange” value was “″++″ (≥20% = ++)”.
With “558 (GLLENIPRV; listed as Homo sapiens) [compound 558]” the “Peptide exchange” value was “″+++″ (≥50% = +++)”.
“206 (VLQEGKLQKLAQL; listed as Homo sapiens) [compound 206]” was tested, and the “Peptide exchange” value was “″+++″ (≥50% = +++)”.
In the case of “262 (LLWGDLIWL; listed as Homo sapiens) [compound 262]”, the “Peptide exchange” value was “″+++″ (≥50% = +++)”.
“273 (NLFQSVREV; listed as Homo sapiens) [compound 273]” was tested, and the “Peptide exchange” value was “″++″ (≥20% = ++)”.
In the case of “329 (FLVTLNNVEV; listed as Homo sapiens) [compound 329]”, the “Peptide exchange” value was “″++++″ (≥75% = ++++)”.
“431 (SLVNVVPKL; listed as Homo sapiens) [compound 431]” was tested, and the “Peptide exchange” value was “″++″ (≥20% = ++)”.
In the case of “277 (LLPPLESLATV; listed as Homo sapiens) [compound 277]”, the “Peptide exchange” value was “″++″ (≥20% = ++)”.
For “607 (RLYSGISGLEL; listed as Homo sapiens) [compound 607]”, the “Peptide exchange” value was “″+++″ (≥50% = +++)”.
With “514 (ILVDWLVQV; listed as Homo sapiens) [compound 514]” the “Peptide exchange” value was “″+++″ (≥50% = +++)”.
“238 (YLISFQTHI; listed as Homo sapiens) [compound 238]” was tested, and the “Peptide exchange” value was “″+++″ (≥50% = +++)”.
For “340 (ALLSMTFPL; listed as Homo sapiens) [compound 340]”, the “Peptide exchange” value was “″++++″ (≥75% = ++++)”.
In the case of “41 (SLMPHIPGL; listed as Homo sapiens) [compound 41]”, the “Peptide exchange” value was “″+++″ (≥50% = +++)”.
In the case of “568 (TLYDIAHTPGV; listed as Homo sapiens) [compound 568]”, the “Peptide exchange” value was “″++++″ (≥75% = ++++)”.
For “47 (ILLSVPLLVV; listed as Homo sapiens) [compound 47]”, the “Peptide exchange” value was “″++″ (≥20% = ++)”.
“109 (IILSILEQA; listed as Homo sapiens) [compound 109]” was tested, and the “Peptide exchange” value was “″++++″ (≥75% = ++++)”.
“481 (GLIEDYEALL; listed as Homo sapiens) [compound 481]” was tested, and the “Peptide exchange” value was “″+++″ (≥50% = +++)”.
“304 (MTLGQIYYL; listed as Homo sapiens) [compound 304]” was tested, and the “Peptide exchange” value was “″+++″ (≥50% = +++)”.
For “371 (FLQAHLHTA; listed as Homo sapiens) [compound 371]”, the “Peptide exchange” value was “″++++″ (≥75% = ++++)”.
For “263 (LLVSNLDFGV; listed as Homo sapiens) [compound 263]”, the “Peptide exchange” value was “″+++″ (≥50% = +++)”.
“598 (FLFPHSVLV; listed as Homo sapiens) [compound 598]” was tested, and the “Peptide exchange” value was “″+++″ (≥50% = +++)”.
In the case of “149 (NLLELFVQL; listed as Homo sapiens) [compound 149]”, the “Peptide exchange” value was “″+++″ (≥50% = +++)”.
In the case of “170 (RLQETLSAA; listed as Homo sapiens) [compound 170]”, the “Peptide exchange” value was “″+++″ (≥50% = +++)”.
For “392 (ALLHPQGFEV; listed as Homo sapiens) [compound 392]”, the “Peptide exchange” value was “″++″ (≥20% = ++)”.
For “573 (ILVANAIVGV; listed as Homo sapiens) [compound 573]”, the “Peptide exchange” value was “″+++″ (≥50% = +++)”.
In the case of “314 (ALIAEGIALV; listed as Homo sapiens) [compound 314]”, the “Peptide exchange” value was “″+++″ (≥50% = +++)”.
For “70 (GLLDYPVGV; listed as Homo sapiens) [compound 70]”, the “Peptide exchange” value was “″+++″ (≥50% = +++)”.
In the case of “562 (YLEELPEKLKL; listed as Homo sapiens) [compound 562]”, the “Peptide exchange” value was “″+++″ (≥50% = +++)”.
In the case of “183 (FGLDLVTEL; listed as Homo sapiens) [compound 183]”, the “Peptide exchange” value was “″+++″ (≥50% = +++)”.
For “580 (LLMENAERV; listed as Homo sapiens) [compound 580]”, the “Peptide exchange” value was “″++″ (≥20% = ++)”.
For “366 (RLLDMGETDLML; listed as Homo sapiens) [compound 366]”, the “Peptide exchange” value was “″+++″ (≥50% = +++)”.
For “196 (YLYSVEIKL; listed as Homo sapiens) [compound 196]”, the “Peptide exchange” value was “″++++″ (≥75% = ++++)”.
In the case of “124 (ALYETELADA; listed as Homo sapiens) [compound 124]”, the “Peptide exchange” value was “″++″ (≥20% = ++)”.
In the case of “211 (LLWPGAALL; listed as Homo sapiens) [compound 211]”, the “Peptide exchange” value was “″++″ (≥20% = ++)”.
With “136 (YLADPSNLFVV; listed as Homo sapiens) [compound 136]” the “Peptide exchange” value was “″+++″ (≥50% = +++)”.

Source: US10227388B2, “Peptides and combination of peptides for use in immunotherapy against non-small cell lung cancer and other cancers” (immatics biotechnologies GmbH, priority 2015, dated 2019)
